The target of test [1] is VEGFR-2 of HUVECs (human (endogenous in HUVECs)) (UniProt P35968).
The target is the same in test [2]. This is another data set of the same source.
Test [3] shares this target. In words: proximity ligation; Duolink in situ PLA on HUVECs treated with VEGF/CaD for 2 min, fixed in paraformaldehyde and permeabilized; goat anti-VEGF and rabbit anti-VEGFR2 antibodies overnight at 4°C; dots per cell counted with ImageJ.

The record followed here is PMC6959593.

Chain of UniProt P35968 (P35968 20-1356): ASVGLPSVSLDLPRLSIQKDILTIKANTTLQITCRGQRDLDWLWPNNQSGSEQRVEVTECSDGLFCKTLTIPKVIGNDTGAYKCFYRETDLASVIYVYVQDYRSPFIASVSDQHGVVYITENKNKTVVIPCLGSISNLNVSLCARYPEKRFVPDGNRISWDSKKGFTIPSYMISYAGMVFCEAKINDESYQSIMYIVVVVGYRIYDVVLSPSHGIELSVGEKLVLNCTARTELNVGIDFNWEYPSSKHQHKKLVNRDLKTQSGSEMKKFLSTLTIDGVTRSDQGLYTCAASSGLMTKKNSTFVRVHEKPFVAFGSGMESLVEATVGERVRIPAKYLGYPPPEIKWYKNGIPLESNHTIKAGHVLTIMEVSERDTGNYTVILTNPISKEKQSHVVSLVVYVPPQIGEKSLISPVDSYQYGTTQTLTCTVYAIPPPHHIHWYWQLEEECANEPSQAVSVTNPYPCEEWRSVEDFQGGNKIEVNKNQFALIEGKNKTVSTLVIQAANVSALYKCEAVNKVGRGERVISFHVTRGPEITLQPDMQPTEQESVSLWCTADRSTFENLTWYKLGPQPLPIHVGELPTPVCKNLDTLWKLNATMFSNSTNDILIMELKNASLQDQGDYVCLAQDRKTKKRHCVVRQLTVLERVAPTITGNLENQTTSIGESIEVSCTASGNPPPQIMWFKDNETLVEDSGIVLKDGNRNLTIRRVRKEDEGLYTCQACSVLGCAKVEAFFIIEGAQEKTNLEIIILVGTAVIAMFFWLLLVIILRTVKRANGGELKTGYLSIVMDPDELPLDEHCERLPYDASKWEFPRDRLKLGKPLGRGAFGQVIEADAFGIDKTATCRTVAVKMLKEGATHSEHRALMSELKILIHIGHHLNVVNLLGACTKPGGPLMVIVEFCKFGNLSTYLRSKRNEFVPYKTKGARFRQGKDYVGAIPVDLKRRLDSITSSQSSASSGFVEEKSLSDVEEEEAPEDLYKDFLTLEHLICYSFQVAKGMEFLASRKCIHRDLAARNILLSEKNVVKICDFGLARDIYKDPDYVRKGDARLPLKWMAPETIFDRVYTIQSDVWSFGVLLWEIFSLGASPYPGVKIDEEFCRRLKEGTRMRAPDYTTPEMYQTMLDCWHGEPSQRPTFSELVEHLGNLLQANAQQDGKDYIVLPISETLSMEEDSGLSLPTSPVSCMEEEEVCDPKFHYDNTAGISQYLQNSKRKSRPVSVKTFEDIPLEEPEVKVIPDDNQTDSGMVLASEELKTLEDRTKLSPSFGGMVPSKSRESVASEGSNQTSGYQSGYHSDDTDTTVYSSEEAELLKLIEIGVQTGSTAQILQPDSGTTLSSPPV

recombinant VEGF165 (ligand) displayed a VEGF165 (25 ng/mL)-induced phosphorylation of VEGFR-2 in HUVECs (Western blot, 2 min), VEGF165 premixed with CaD (6-100 μM) for 60 min in test [1] below 50%. In test [2], this substance yielded a VEGF165 (25 ng/ml)-induced phosphorylation of VEGFR-2 in heparanase (HPSE, 0.5 μg/ml)-treated HUVECs, with CaD (100 μM), relative to VEGF alone (Western blot) of 50%. Also, the decrease of the PLA signal in the presence of CaD in test [3] was 60%.
